Consider three molecules from article PMC7565430, “An Unbiased Immunization Strategy Results in the Identification of Enolase as a Potential Marker for Nanobody-Based Detection of Trypanosoma evansi” (Vaccines, 2020).

In experiment [1] the test system is T1, TevENO (T. evansi enolase).
T1 construct: gene ENO; recombinant, codon-optimised gene in pET21b, E. coli BL21(DE3); N-terminal His6 tag and TEV cleavage site, tag cleavage not described
Kind of experiment: PYK/LDH coupled assay, NADH absorbance at […] nm, Michaelis-Menten fit. It counts as biochemical, Trypanosoma evansi. The conditions noted are these: 0.1 M triethanolamine/HCl, pH 7.6, 25 °C, 2 mM MgSO4, 17 mM KCl, 1.1 mM ADP, 0.42 mM NADH; 2-PGA 0 to 1 mM.

Experiment [2] concerns the target recombinant Trypanosoma evansi enolase (TevENO), His-tagged (Trypanosoma evansi). Description: SEC; analytical SEC, ENrich SEC 650 10 x 300 column, buffer A (50 mM sodium phosphate, 5 mM MgCl2, pH 7.0); 500 μg TevENO, 168.9 μg Nb11, or mixtures at TevENO:Nb11 monomer ratios 2:1, 2:2, 2:3, 2:4 incubated 1 h; peaks analysed by SDS-PAGE. (Size exclusion chromatography separates by hydrodynamic size, large species first.)

The target of experiment [3] is T2, recombinant Trypanosoma evansi enolase (TevENO), His-tagged (Trypanosoma evansi).
T2 construct: monomer MM = 48.41 kDa as printed; also called T. evansi enolase; recombinant TevENO; source: E. coli BL21 (DE3), purified (IMAC, SEC)
T2 chain: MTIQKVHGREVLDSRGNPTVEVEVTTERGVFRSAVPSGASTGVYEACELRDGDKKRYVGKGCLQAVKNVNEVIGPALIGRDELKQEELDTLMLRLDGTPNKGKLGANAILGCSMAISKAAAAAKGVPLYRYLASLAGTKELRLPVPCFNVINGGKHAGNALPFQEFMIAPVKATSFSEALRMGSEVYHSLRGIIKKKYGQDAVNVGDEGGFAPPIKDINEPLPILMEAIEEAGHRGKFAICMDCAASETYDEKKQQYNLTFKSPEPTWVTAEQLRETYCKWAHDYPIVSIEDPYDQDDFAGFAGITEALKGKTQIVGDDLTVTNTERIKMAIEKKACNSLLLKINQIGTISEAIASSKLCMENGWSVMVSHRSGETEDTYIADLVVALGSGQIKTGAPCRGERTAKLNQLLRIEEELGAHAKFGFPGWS
Kind of experiment: ELISA; heterologous sandwich ELISA: His-tagged Nb11 coated at 1 μg/mL, TevENO 1 μg/mL in PBS, HA-tagged detection Nb at 1 μg/mL. The conditions noted are these: both partners purified. Background: An ELISA detects its analyte on a solid surface through an enzyme-linked reagent.

As to `O=C(O)[C@@H](CO)OP(=O)(O)O` [2-PGA, 2-phosphoglycerate], in experiment [1], the Km stood at 52 µM.

As for “recombinant Trypanosoma evansi enolase (TevENO), His-tagged (enzyme)”, the stoichiometry N in experiment [2] amounted to 2.

B1: NbR1-10 (VHH)
VHH: QVQLQESGGGLVQPGGSLRLSCAAPGSIFSIFSGNIMGWYRQAPGKQRDFVASISSGGATNYADSVKGRFTISRDNAKNTVYLQMNNLKPEDTAVYYCNTVGGVHTNSWGQGTQVTVSS
notes: alpaca Nanobody; source: E. coli WK6, periplasmic extract, purified (His-Select Nickel resin, SEC)
As for B1, in experiment [3], the binding result was “binds”.

The term Km denotes the substrate concentration at which the rate is half of its maximum. As usually defined, the stoichiometry N is the number of molecules, sites or subunits per partner or assembly.
